This is an account of results in patent US20140178963A1 (MINERVA BIOTECHNOLOGIES, published 2014).

This assay deals with T1, NM23-wt containing the Strep-tag II (UniProt P15531 1-152, limits assumed).
T1 construct: Strep-tag II version used in the nanoparticle assay; also called wild type hexamers; not shown: Strep-tag II
The assay is described as follows: gold nanoparticle color change assay. The source says:
A nanoparticle assay was used to characterize the binding of NM23 dimers versus hexamers. A MUC1*ecd peptide ([…]) (SEQ ID NO:44) was immobilized on NTA-SAM-coated gold colloids. NM23-wt, NM23S120G-dimer and NM23S120G-hexamer were expressed and purified with the Strep-tag II (FIG. 22c). The addition of NM23S120G-dimer induced a pink to blue solution color change, indicating a specific binding, which was then inhibited by the addition of an anti-MUC1* Fab.

T1 sequence (P15531 whole entry): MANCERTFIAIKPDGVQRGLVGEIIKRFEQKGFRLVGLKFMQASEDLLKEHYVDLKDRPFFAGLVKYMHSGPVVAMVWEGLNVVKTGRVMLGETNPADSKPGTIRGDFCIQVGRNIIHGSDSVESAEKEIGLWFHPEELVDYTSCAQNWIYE

B1: MUC1*ecd peptide (QFNQYKTEAASRYNLTISDVSVSDVPFPFSAQSGAHHHHHH) immobilized on NTA-SAM-coated gold colloids (peptide)
peptide: QFNQYKTEAASRYNLTISDVSVSDVPFPFSAQSGAHHHHHH
notes: also called MUC1*ecd peptide (PSMGFR-His tagged)
Turning to B1, the binding result is “no binding (tested: 64 nM)”.
